{"source": "the supplement of paper PMC9112550", "about": "“Optimization of the antimicrobial peptide Bac7 by deep mutational scanning” (BMC Biology, 2022);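 note: peptides expressed intracellularly from a pBAD plasmid library in pooled LB shake-flask culture, induced with 0.3% L-arabinose, DNA abundance read by NGS, three biological replicates, DESeq2 with apeglm shrinkage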"}
{"tested_on": "Escherichia coli TOP10", "test": "shrunken log2 fold change of peptide-encoding DNA abundance (4.5 h post-induction vs induction); higher = less antimicrobial activity (less host growth inhibition)", "conditions": "time post-induction: 4.5 h; library: site-saturation at positions 5, 18, 19, 20"}
{"sequence": "RRIRNRPPRLPRPRPRPYDKPRP", "shrunken log2 fold change": -0.388}
{"sequence": "RRIRVRPPRLPRPRPRPWLAPRP", "shrunken log2 fold change": 0.232}
{"sequence": "RRIRMRPPRLPRPRPRPVNSPRP", "shrunken log2 fold change": 0.00706}
{"sequence": "RRIRNRPPRLPRPRPRPPDYPRP", "shrunken log2 fold change": -0.077}
{"sequence": "RRIRPRPPRLPRPRPRPEMPPRP", "shrunken log2 fold change": 0.762}
{"sequence": "RRIRIRPPRLPRPRPRPFTPPRP", "shrunken log2 fold change": -0.875}
{"sequence": "RRIRARPPRLPRPRPRPIAPPRP", "shrunken log2 fold change": 0.53}
{"sequence": "RRIRQRPPRLPRPRPRPWSFPRP", "shrunken log2 fold change": -0.026}
{"sequence": "RRIRLRPPRLPRPRPRPCTFPRP", "shrunken log2 fold change": -0.0569}
{"sequence": "RRIRKRPPRLPRPRPRPYWVPRP", "shrunken log2 fold change": -0.306}
{"sequence": "RRIRRRPPRLPRPRPRPCFGPRP", "shrunken log2 fold change": 0.0921}
{"sequence": "RRIRVRPPRLPRPRPRPMAVPRP", "shrunken log2 fold change": -0.0191}
{"sequence": "RRIRRRPPRLPRPRPRPHTHPRP", "shrunken log2 fold change": -0.11}
{"sequence": "RRIRWRPPRLPRPRPRPNTEPRP", "shrunken log2 fold change": -0.324}
{"sequence": "RRIRHRPPRLPRPRPRPFRWPRP", "shrunken log2 fold change": 0.137}
{"sequence": "RRIRCRPPRLPRPRPRPTHVPRP", "shrunken log2 fold change": 0.437}
{"sequence": "RRIRVRPPRLPRPRPRPHGFPRP", "shrunken log2 fold change": -0.017}
{"sequence": "RRIRKRPPRLPRPRPRPWNNPRP", "shrunken log2 fold change": 0.0165}
{"sequence": "RRIRTRPPRLPRPRPRPLMKPRP", "shrunken log2 fold change": -0.26}
{"sequence": "RRIRARPPRLPRPRPRPLSWPRP", "shrunken log2 fold change": 0.984}
{"sequence": "RRIRVRPPRLPRPRPRPFWHPRP", "shrunken log2 fold change": -0.205}
{"sequence": "RRIRARPPRLPRPRPRPCRHPRP", "shrunken log2 fold change": -0.355}
{"sequence": "RRIRVRPPRLPRPRPRPVLNPRP", "shrunken log2 fold change": -0.2}
{"sequence": "RRIRWRPPRLPRPRPRPKFCPRP", "shrunken log2 fold change": -0.116}
{"sequence": "RRIRERPPRLPRPRPRPKFCPRP", "shrunken log2 fold change": -0.267}
{"sequence": "RRIRKRPPRLPRPRPRPRPGPRP", "shrunken log2 fold change": 0.721}
{"sequence": "RRIRNRPPRLPRPRPRPDPEPRP", "shrunken log2 fold change": 0.211}
{"sequence": "RRIRDRPPRLPRPRPRPPAKPRP", "shrunken log2 fold change": 0.443}
{"sequence": "RRIRSRPPRLPRPRPRPGSDPRP", "shrunken log2 fold change": 0.0314}
{"sequence": "RRIRGRPPRLPRPRPRPLVTPRP", "shrunken log2 fold change": 1.2}
{"sequence": "RRIRKRPPRLPRPRPRPIQHPRP", "shrunken log2 fold change": -0.311}
{"sequence": "RRIRERPPRLPRPRPRPQRDPRP", "shrunken log2 fold change": 0.0296}
{"sequence": "RRIRNRPPRLPRPRPRPAWTPRP", "shrunken log2 fold change": 0.182}
{"sequence": "RRIRIRPPRLPRPRPRPDSVPRP", "shrunken log2 fold change": 0.0234}
{"sequence": "RRIRYRPPRLPRPRPRPTCIPRP", "shrunken log2 fold change": -0.257}
{"sequence": "RRIRHRPPRLPRPRPRPRALPRP", "shrunken log2 fold change": 0.152}
{"sequence": "RRIRSRPPRLPRPRPRPTHAPRP", "shrunken log2 fold change": 0.368}
{"sequence": "RRIRGRPPRLPRPRPRPARNPRP", "shrunken log2 fold change": 0.51}
{"sequence": "RRIRHRPPRLPRPRPRPDYHPRP", "shrunken log2 fold change": -0.336}
{"sequence": "RRIRARPPRLPRPRPRPTAYPRP", "shrunken log2 fold change": 0.223}
{"sequence": "RRIRWRPPRLPRPRPRPHIKPRP", "shrunken log2 fold change": -0.243}
{"sequence": "RRIRVRPPRLPRPRPRPMLDPRP", "shrunken log2 fold change": -0.215}
{"sequence": "RRIRVRPPRLPRPRPRPQFWPRP", "shrunken log2 fold change": -0.178}
{"sequence": "RRIRGRPPRLPRPRPRPQNLPRP", "shrunken log2 fold change": -0.34}
{"sequence": "RRIRSRPPRLPRPRPRPLTLPRP", "shrunken log2 fold change": -0.599}
{"sequence": "RRIRRRPPRLPRPRPRPTPTPRP", "shrunken log2 fold change": 1.14}
{"sequence": "RRIRSRPPRLPRPRPRPCPEPRP", "shrunken log2 fold change": -0.444}
{"sequence": "RRIRYRPPRLPRPRPRPSCTPRP", "shrunken log2 fold change": -1.36}
{"sequence": "RRIRIRPPRLPRPRPRPPDAPRP", "shrunken log2 fold change": 0.5}
{"sequence": "RRIRDRPPRLPRPRPRPWGRPRP", "shrunken log2 fold change": 0.258}
{"sequence": "RRIRIRPPRLPRPRPRPYNSPRP", "shrunken log2 fold change": -0.0199}
{"sequence": "RRIRHRPPRLPRPRPRPMQLPRP", "shrunken log2 fold change": -0.366}
{"sequence": "RRIRVRPPRLPRPRPRPSCYPRP", "shrunken log2 fold change": -0.568}
{"sequence": "RRIRMRPPRLPRPRPRPGIMPRP", "shrunken log2 fold change": 0.246}
{"sequence": "RRIRYRPPRLPRPRPRPGDKPRP", "shrunken log2 fold change": -0.288}
{"sequence": "RRIRRRPPRLPRPRPRPNPGPRP", "shrunken log2 fold change": -0.035}
{"sequence": "RRIRSRPPRLPRPRPRPCVYPRP", "shrunken log2 fold change": -0.0613}
{"sequence": "RRIRYRPPRLPRPRPRPLYSPRP", "shrunken log2 fold change": -1.15}
{"sequence": "RRIRNRPPRLPRPRPRPMDCPRP", "shrunken log2 fold change": 0.0919}
{"sequence": "RRIRFRPPRLPRPRPRPHKDPRP", "shrunken log2 fold change": -0.709}
{"sequence": "RRIRHRPPRLPRPRPRPEKGPRP", "shrunken log2 fold change": -0.00804}
{"sequence": "RRIRMRPPRLPRPRPRPNDYPRP", "shrunken log2 fold change": -0.103}
{"sequence": "RRIRTRPPRLPRPRPRPGWKPRP", "shrunken log2 fold change": 0.262}
{"sequence": "RRIRYRPPRLPRPRPRPLFGPRP", "shrunken log2 fold change": -0.0957}
{"sequence": "RRIRHRPPRLPRPRPRPVDNPRP", "shrunken log2 fold change": 0.013}
{"sequence": "RRIRFRPPRLPRPRPRPIRNPRP", "shrunken log2 fold change": -0.0537}
{"sequence": "RRIRGRPPRLPRPRPRPEVSPRP", "shrunken log2 fold change": 0.372}
{"sequence": "RRIRCRPPRLPRPRPRPETPPRP", "shrunken log2 fold change": 1.91}
{"sequence": "RRIRWRPPRLPRPRPRPTCCPRP", "shrunken log2 fold change": 1.13}
{"sequence": "RRIRQRPPRLPRPRPRPCEFPRP", "shrunken log2 fold change": -0.311}
{"sequence": "RRIRFRPPRLPRPRPRPCCWPRP", "shrunken log2 fold change": 0.148}
{"sequence": "RRIRDRPPRLPRPRPRPKKKPRP", "shrunken log2 fold change": -0.0718}
{"sequence": "RRIRDRPPRLPRPRPRPDDNPRP", "shrunken log2 fold change": 0.153}
{"sequence": "RRIRNRPPRLPRPRPRPWVTPRP", "shrunken log2 fold change": -0.0711}
{"sequence": "RRIRTRPPRLPRPRPRPNAHPRP", "shrunken log2 fold change": -0.102}
